Source: the supplement of paper PMC6757056
± gives the standard deviation of the averaged measurements.

B1: library; a variant is named by its letters at N, in order (parent)
chain: GCUGUCACCGGUGCUUGGUACGUUAUAUUCAGCCGGUCUGAUGAGUCUNNNNNNAGACGAAACAGC

Columns and labels:
(6R,S)-folinic acid [1] = variants of: B1; test: FACS-Seq fitted mean relative fluorescence mCherry/BFP without ligand (log10 relative fluorescence); HEK293T overexpressing SLC46A1; higher = higher reporter protein expression; settings: without (6R,S)-folinic acid; ligand present: no
Outline: (§1)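 The ribozyme switch sat in an mCherry reporter, delivered by lentivirus into HEK293T libraries along with an EF1α-BFP marker. Enriched cells were incubated 48 h with or without ligand, sorted into 6 bins by mCherry/BFP, and bin genomic DNA was PCR-amplified, barcoded and MiSeq-sequenced. Fluorescence equals the fitted normal mean of the bin counts after normalization. Those log10(mCherry/BFP) means were scaled to five spiked-in control ribozymes.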

(6R,S)-folinic acid [2] = variants of: B1; test: normalized RNA/DNA level without ligand (relative to sTRSVctl = 100) (log10 (% of sTRSVctl)); HEK293T overexpressing SLC46A1; higher = less ribozyme self-cleavage, higher mRNA level; settings: without (6R,S)-folinic acid; ligand present: no
Outline: (§2)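 For each 6-well well, 4 µg of library plasmid encoding mCherry-linked ribozyme switches, or eGFP-linked ones in some ligand experiments, was transfected into HEK293T. Any ligand was added 1 h before transfection, and RNA was extracted with EDTA 72 h after it, then reverse-transcribed, amplified, barcoded and sequenced. RNA level was obtained by dividing RNA reads by DNA reads, normalizing to a spiked-in non-cleaving sequence or to the top sequences, then scaling and log-transforming. The top set was 25 sequences, scaling was ×100 with log10, and ≥100 DNA reads were required.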

(6R,S)-folinic acid [3] = variants of: B1; test: FACS-Seq fitted mean relative fluorescence mCherry/BFP with ligand (log10 relative fluorescence); HEK293T overexpressing SLC46A1; ligand concentration (+) FACS-Seq: 6 mM; higher = higher reporter protein expression; settings: with (6R,S)-folinic acid; ligand present: yes
Outline: as §1

(6R,S)-folinic acid [4] = variants of: B1; test: normalized RNA/DNA level with ligand (relative to sTRSVctl = 100) (log10 (% of sTRSVctl)); HEK293T overexpressing SLC46A1; ligand concentration (+) RNA-Seq: 6 mM; higher = less ribozyme self-cleavage, higher mRNA level; settings: with (6R,S)-folinic acid; ligand present: yes
Outline: as §2

Row | Variant | FACS-Seq fitted mean (log10) ((6R,S)-folinic acid [1]) | normalized RNA/DNA level without ligand (log10) ((6R,S)-folinic acid [2]) | FACS-Seq fitted mean (log10) ((6R,S)-folinic acid [3]) | normalized RNA/DNA level with ligand (log10) ((6R,S)-folinic acid [4])
1 | GCUGUCACCGGUGCUUGGUACGUUAUAUUCAGCCGGUCUGAUGAGUCUUAUGGAAGACGAAACAGC [UAUGGA] | 0.416 ± 0.029 | 1.828 ± 0.012 | 0.472 ± 0.013 | 1.98 ± 0.021
2 | GCUGUCACCGGUGCUUGGUACGUUAUAUUCAGCCGGUCUGAUGAGUCUUAUGGGAGACGAAACAGC [UAUGGG] | 0.1983 ± 0.0014 | 1.54 ± 0.028 | 0.816 ± 0.12 | 1.91 ± 0.045
3 | GCUGUCACCGGUGCUUGGUACGUUAUAUUCAGCCGGUCUGAUGAGUCUUAUGGCAGACGAAACAGC [UAUGGC] | -0.0353 ± 0.039 | 1.948 ± 0.014 | -0.149 ± 0.14 | 2 ± 0.032
4 | GCUGUCACCGGUGCUUGGUACGUUAUAUUCAGCCGGUCUGAUGAGUCUAAUGAGAGACGAAACAGC [AAUGAG] | 0.455 ± 0.051 | 1.778 ± 0.0047 | 0.7222 ± 0.0013 | 1.97 ± 0.021
5 | GCUGUCACCGGUGCUUGGUACGUUAUAUUCAGCCGGUCUGAUGAGUCUGAUGCAAGACGAAACAGC [GAUGCA] | 0.5601 ± 0.0038 | 2.009 ± 0.0054 | 0.5189 ± 0.004 | 2.04 ± 0.035
6 | GCUGUCACCGGUGCUUGGUACGUUAUAUUCAGCCGGUCUGAUGAGUCUGAUGCGAGACGAAACAGC [GAUGCG] | 0.444 ± 0.16 | 1.941 ± 0.011 | 0.693 ± 0.15 | 2.02 ± 0.07
7 | GCUGUCACCGGUGCUUGGUACGUUAUAUUCAGCCGGUCUGAUGAGUCUGAUGGUAGACGAAACAGC [GAUGGU] | 0.536 ± 0.091 | 2.004 ± 0.0039 | 0.622 ± 0.045 | 2.02 ± 0.049
8 | GCUGUCACCGGUGCUUGGUACGUUAUAUUCAGCCGGUCUGAUGAGUCUGAUGGCAGACGAAACAGC [GAUGGC] | 0.227 ± 0.13 | 1.967 ± 0.019 | 0.542 ± 0.2 | 2.01 ± 0.021
9 | GCUGUCACCGGUGCUUGGUACGUUAUAUUCAGCCGGUCUGAUGAGUCUAAUGGGAGACGAAACAGC [AAUGGG] | 0.225 ± 0.07 | 1.8 ± 0.022 | 0.233 ± 0.18 | 2 ± 0.021
10 | GCUGUCACCGGUGCUUGGUACGUUAUAUUCAGCCGGUCUGAUGAGUCUAAUGGUAGACGAAACAGC [AAUGGU] | 0.406 ± 0.13 | 1.9355 ± 0.00018 | 0.51 ± 0.099 | 2 ± 0.055
11 | GCUGUCACCGGUGCUUGGUACGUUAUAUUCAGCCGGUCUGAUGAGUCUGAUGAUAGACGAAACAGC [GAUGAU] | 0.196 ± 0.072 | 1.935 ± 0.019 | 0.199 ± 0.049 | 1.98 ± 0.034
12 | GCUGUCACCGGUGCUUGGUACGUUAUAUUCAGCCGGUCUGAUGAGUCUGAUGAGAGACGAAACAGC [GAUGAG] | 0.483 ± 0.0054 | 1.858 ± 0.0066 | 0.624 ± 0.12 | 1.978 ± 0.015
13 | GCUGUCACCGGUGCUUGGUACGUUAUAUUCAGCCGGUCUGAUGAGUCUAAUGCAAGACGAAACAGC [AAUGCA] | 0.514 ± 0.0055 | 1.99 ± 0.03 | 0.45 ± 0.072 | 2.02 ± 0.034
14 | GCUGUCACCGGUGCUUGGUACGUUAUAUUCAGCCGGUCUGAUGAGUCUAAUGCGAGACGAAACAGC [AAUGCG] | 0.217 ± 0.13 | 1.839 ± 0.018 | 0.405 ± 0.11 | 2 ± 0.03
15 | GCUGUCACCGGUGCUUGGUACGUUAUAUUCAGCCGGUCUGAUGAGUCUUAUGAGAGACGAAACAGC [UAUGAG] | 0.159 ± 0.026 | 1.609 ± 0.0041 | 0.709 ± 0.075 | 1.9 ± 0.045
16 | GCUGUCACCGGUGCUUGGUACGUUAUAUUCAGCCGGUCUGAUGAGUCUUAUGAUAGACGAAACAGC [UAUGAU] | 0.263 ± 0.038 | 1.911 ± 0.013 | 0.486 ± 0.099 | 1.97 ± 0.027
17 | GCUGUCACCGGUGCUUGGUACGUUAUAUUCAGCCGGUCUGAUGAGUCUUAUGACAGACGAAACAGC [UAUGAC] | 0.193 ± 0.17 | 1.971 ± 0.01 | 0.413 ± 0.083 | 2 ± 0.053
18 | GCUGUCACCGGUGCUUGGUACGUUAUAUUCAGCCGGUCUGAUGAGUCUGAUGUCAGACGAAACAGC [GAUGUC] | 0.311 ± 0.066 | 2.021 ± 0.013 | 0.392 ± 0.21 | 1.991 ± 0.014
19 | GCUGUCACCGGUGCUUGGUACGUUAUAUUCAGCCGGUCUGAUGAGUCUGAUGUAAGACGAAACAGC [GAUGUA] | 0.1 ± 0.0045 | 1.937 ± 0.004 | 0.322 ± 0.11 | 2.001 ± 0.02
20 | GCUGUCACCGGUGCUUGGUACGUUAUAUUCAGCCGGUCUGAUGAGUCUUAUGCUAGACGAAACAGC [UAUGCU] | -0.0167 ± 0.051 | 2.007 ± 0.0048 | 0.129 ± 0.27 | 2.04 ± 0.029
21 | GCUGUCACCGGUGCUUGGUACGUUAUAUUCAGCCGGUCUGAUGAGUCUUAUGCGAGACGAAACAGC [UAUGCG] | 0.276 ± 0.043 | 1.7391 ± 0.00075 | 0.61 ± 0.063 | 1.961 ± 0.014
